± gives the standard deviation of the averaged measurements.
Assay: total protein half-life in vivo (active degradation + dilution); higher = more stable protein
[1] = E. coli NCM3722 delta-clpP, growth: N-lim chemostat, doubling time 6 h
[2] = E. coli NCM3722 delta-hslV, growth: N-lim chemostat, doubling time 6 h
[3] = E. coli NCM3722 delta-lon, growth: N-lim chemostat, doubling time 6 h
[4] = E. coli NCM3722 delta-smpB, growth: N-lim chemostat, doubling time 6 h
[5] = wild type E. coli NCM3722, growth: C-lim chemostat, doubling time 3 h
[6] = wild type E. coli NCM3722, growth: C-lim chemostat, doubling time 6 h
[7] = wild type E. coli NCM3722, growth: C-lim chemostat, doubling time 12 h
[8] = wild type E. coli NCM3722, growth: N-lim chemostat, doubling time 6 h
[9] = wild type E. coli NCM3722, growth: N-lim chemostat, doubling time 12 h
[10] = wild type E. coli NCM3722, growth: P-lim chemostat, doubling time 6 h
[11] = wild type E. coli NCM3722, growth: P-lim chemostat, doubling time 12 h
[12] = E. coli NCM3722 delta-clpP delta-lon delta-hslV, growth: N-lim chemostat, doubling time 6 h

| Sequence | total protein half-life in vivo [1] | total protein half-life in vivo [2] | total protein half-life in vivo [3] | total protein half-life in vivo [4] | total protein half-life in vivo [5] | total protein half-life in vivo [6] | total protein half-life in vivo [7] | total protein half-life in vivo [8] | total protein half-life in vivo [9] | total protein half-life in vivo [10] | total protein half-life in vivo [11] | total protein half-life in vivo [12] |
| --- | --- | --- | --- | --- | --- | --- | --- | --- | --- | --- | --- | --- |
| MLGKYKAVLALLLLIILVPLTLLMTLGLWVPTLAGIWLPLGTRIALDESPRITRKGLIIPDLRYLVGDCQLAHITNASLSHPSRWLLNVGTVELDSACLAKLPQTEQSPAAPKTLAQWQAMLPNTWINIDKLIFSPWQEWQGKLSLALTSDIQQLRYQGEKVKFQGQLKGQQLTVSELDVVAFENQPPVKLVGEFAMPLVPDGLPVSGHATATLNLPQEPSLVDAELDWQENSGQLIVLARDNGDPLLDLPWQITRQQLTVSDGRWSWPYAGFPLSGRLGVKVDNWQAGLENALVSGRLSVLTQGQAGKGNAVLNFGPGKLSMDNSQLPLQLTGEAKQADLILYARLPAQLSGSLSDPTLTFEPGALLRSKGRVIDSLDIDEIRWPLAGVKVTQRGVDGRLQAILQAHENELGDFVLHMDGLANDFLPDAGRWQWRYWGKGSFTPMNATWDVAGKGEWHDSTITLTDLSTGFDQLQYGTMTVEKPRLILDKPIVWVRDAQHPSFSGALSLDAGQTLFTGGSVLPPSTLKFSVDGRDPTYFLFKGDLHAGEIGPVRVNGRWDGIRLRGNAWWPKQSLTVFQPLVPPDWKMNLRDGELYAQVAFSAAPEQGFRAGGHGVLKGGSAWMPDNQVNGVDFVLPFRFADGAWHLGTRGPVTLRIAEVINLVTAKNITADLQGRYPWTEEEPLLLTDVSVDVLGGNVLMKQLRMPQHDPALLRLNNLSSSELVSAVNPKQFAMSGAFSGALPLWLNNEKWIVKDGWLANSGPMTLRLDKDTADAVVKDNMTAGSAINWLRYMEISRSSTKINLDNLGLLTMQANITGTSRVDGKSGTVNLNYHHEENIFTLWRSLRFGDNLQAWLEQNARLPGNDCPQGKECEEKQ | 5.985 ± 0.043 h | 6.03 ± 0.13 h | 6.22 ± 0.2 h | 5.57 ± 0.078 h | 3.236 ± 0.032 h | 6.2 ± 0.12 h | 10.8 ± 0.14 h | 6 ± 0.47 h | 12.3 ± 0.45 h | 6.06 ± 0.32 h | 12.17 ± 0.039 h |  |
| MLGLKQVHHIAIIATDYAVSKAFYCDILGFTLQSEVYREARDSWKGDLALNGQYVIELFSFPFPPERPSRPEACGLRHLAFSVDDIDAAVAHLESHNVKCETIRVDPYTQKRFTFFNDPDGLPLELYEQ | 4.26 ± 0.34 h |  | 4.65 ± 0.89 h | 3.22 h | 2.51 h | 5.13 h | 11.4 h | 3.54 h | 4.57 ± 0.75 h | 6.05 ± 1.1 h | 11.7 ± 0.74 h | 3.94 ± 0.96 h |
| MLGWVITCHDDRAQEILDALEKKHGALLQCRAVNFWRGLSSNMLSRMMCDALHEADSGEGVIFLTDIAGAPPYRVASLLSHKHSRCEVISGVTLPLIEQMMACRETMTSSEFRERIVELGAPEVSSLWHQQQKNPPFVLKHNLYEY |  |  |  |  |  | 0.895 h | 0.859 h |  |  |  |  | 4.15 h |
| MLHKKTLLFAALSAALWGGATQAADAAVVASLKPVGFIASAIADGVTETEVLLPDGASEHDYSLRPSDVKRLQNADLVVWVGPEMEAFMQKPVSKLPGAKQVTIAQLEDVKPLLMKSIHGDDDDHDHAEKSDEDHHHGDFNMHLWLSPEIARATAVAIHGKLVELMPQSRAKLDANLKDFEAQLASTETQVGNELAPLKGKGYFVFHDAYGYFEKQFGLTPLGHFTVNPEIQPGAQRLHEIRTQLVEQKATCVFAEPQFRPAVVESVARGTSVRMGTLDPLGTNIKLGKTSYSEFLSQLANQYASCLKGD | 4.85 ± 0.4 h | 5.99 ± 0.29 h | 7.17 ± 0.96 h |  | 2.86 ± 0.12 h | 5.54 ± 0.29 h | 9.55 ± 1.5 h |  | 13.6 ± 1.4 h | 5.24 ± 0.2 h | 11.4 ± 2.3 h | 3.68 ± 0.41 h |
| MLHLFAGLDLHTGLLLLLALAFVLFYEAINGFHDTANAVATVIYTRAMRSQLAVVMAAVFNFLGVLLGGLSVAYAIVHMLPTDLLLNMGSSHGLAMVFSMLLAAIIWNLGTWYFGLPASSSHTLIGAIIGIGLTNALMTGTSVVDALNIPKVLSIFGSLIVSPIVGLVFAGGLIFLLRRYWSGTKKRARIHLTPAEREKKDGKKKPPFWTRIALILSAIGVAFSHGANDGQKGIGLVMLVLIGVAPAGFVVNMNATGYEITRTRDAINNVEAYFEQHPALLKQATGADQLVPAPEAGATQPAEFHCHPSNTINALNRLKGMLTTDVESYDKLSLDQRSQMRRIMLCVSDTIDKVVKMPGVSADDQRLLKKLKSDMLSTIEYAPVWIIMAVALALGIGTMIGWRRVATTIGEKIGKKGMTYAQGMSAQMTAAVSIGLASYTGMPVSTTHVLSSSVAGTMVVDGGGLQRKTVTSILMAWVFTLPAAVLLSGGLYWLSLQFL [P0AFJ7] | 6.5 ± 1.2 h |  |  | 6.14 ± 0.78 h | 3.761 ± 0.013 h | 6.37 ± 1.4 h | 14.4 ± 0.95 h | 6.13 ± 0.24 h |  | 6.54 ± 0.4 h | 12.6 ± 1 h | 6.99 ± 0.45 h |
| MLHTLHRSPWLTDFAALLRLLSEGDELLLLQDGVTAAVDGNRYLESLRNAPIKVYALNEDLIARGLTGQISNDIILIDYTDFVRLTVKHPSQMAW | 5.7 h | 4.53 ± 0.13 h | 6.44 ± 1.6 h | 4.89 ± 0.16 h | 3.012 ± 0.0044 h | 5.1 h | 13.4 ± 3 h | 4.39 ± 0.46 h | 8.26 h | 5.89 h | 11.3 ± 0.18 h | 5.27 ± 0.29 h |
| MLILKNVTAVQLHPAKVQEGVDIAIENDVIVAIGDALTQRYPDASFKEMHGRIVMPGIVCSHNHFYSGLSRGIMANIAPCPDFISTLKNLWWRLDRALDEESLYYSGLICSLEAIKSGCTSVIDHHASPAYIGGSLSTLRDAFLKVGLRAMTCFETTDRNNGIKELQEGVEENIRFARLIDEAKKATSEPYLVEAHIGAHAPFTVPDAGLEMLREAVKATGRGLHIHAAEDLYDVSYSHHWYGKDLLARLAQFDLIDSKTLVAHGLYLSKDDITLLNQRDAFLVHNARSNMNNHVGYNHHLSDIRNLALGTDGIGSDMFEEMKFAFFKHRDAGGPLWPDSFAKALTNGNELMSRNFGAKFGLLEAGYKADLTICDYNSPTPLLADNIAGHIAFGMGSGSVHSVMVNGVMVYEDRQFNFDCDSIYAQARKAAASMWRRMDALA |  |  |  |  | 2.62 h | 4.3 h | 11.2 h |  |  |  |  | 3.15 h |
| MLKARNCGWIRLLPLFMLSLPVQAELRCVANAVDIESFFSAATAEDKQQVEQAINSSVNLVPFGLSASNWKVHRGDLVVEGNIESNQKLIVLGNLTVKGNISTFSLSNPWVILGNVTATNIVADSPLLITGSINASGLVFIDSYYDNPSTIKGSINARGIFINDIIAPVVASSTNSEFMVRASDKHDTENVKKALMIINPDAYYWGLINDEDALKEIFKRSNIRMAGNVCNQMKKEALFRPKPSPELVQELQMLDEGKVAAFEGRDIATFDLAVMRTLPRLKGISANLRKQLINSNDEQTIESMARYMPDNEILELTDQQLGYQPVVLGLLDREPLSVEIMTRMSRLPDGVGPLNLALRENLPLDIVMTLAKRDWDMIIQELYKDAWLLPESIIDGYIRSDDSSIRQVGAGGQLTYNQAMQLANDSSNNVVTSLAFKLAEMKHHGQLLRMTPQESDKVAGYLYQKFENDDDLIRVLFLALPDNLQFNFVKRMEKKSPAYFCCRDMQVIHSDAALQRLLTRFNDPEGWSNLAKNQYLSTSMKQKIWQRALSHRKNNPKADSDAYETSADMILSELISHGEVDDQMLLNATALIRSDDWDFLESALISWDNLPAVVLKELQQNTPRNDIWAKFFLRQENSSRAQVDEALRVYYALDPDALAQLDVLAKQPDRIWWSTLAKSNLTFFKFGALNNRHTPPAVLAAEIDPEWWIVAMNNPRFPVDVLKARLKRDPLLALELVNPELDLVRQLALNGKTRAIREQAMRKLDELY |  |  |  |  |  |  |  |  |  |  |  | > 8 h |

Source: the supplement of paper PMC11246515
